{
  "source": "patent US20260042815A1",
  "about": "“UNIVERSAL T CELLS AND COMPOSITIONS AND METHODS OF USE THEREOF” (The Trustees of the University of Pennsylvania, priority 2022, published 2026)",
  "molecules": {"B1": {"name": "NKG2D protein: Soluble NKG2D protein employed to block stress ligands (MICA, MICB, ULBP 1-6) on K562 target cells (protein, UniProt P26718 73-216, looked up)", "extracellular domain": "IWSAVFLNSLFNQEVQIPLTESYCGPCPKNWICYKNNCYQFFDESKNWYESQASCMSQNASLLKVYSKEDQDLLKLVKSYHWMGLVHIPTNGSWQWEDGSILSPNLLTIIEMQKGDCALYASSFKGYIENCSTPNTYICMQRTV", "modifications": "extracellular domain"}},
  "system": "stress ligands (MICA, MICB, ULBP 1-6) on K562 target cells",
  "experiment": "Stress ligand blocking on K562 target cells with soluble NKG2D protein",
  "assay_type": "cell-based, human",
  "conditions": "parental K562 and K878 targets, NK cells from two donors",
  "description": "Soluble NKG2D protein was employed to block stress ligands (MICA, MICB, ULBP 1-6) on K562 target cells, which interfered with NKG2D mediated recognition of target cells.",
  "data": [
    {"molecule": "B1", "values": [
      {"measurement": "Effect on target cell recognition by NK cells", "value": "minimal efficacy"}
    ]}
  ]
}
